{"source": "patent US20250242017A1", "about": "“HISTAMINE AND HRH1 SIGNALING ACTIVITY AS BIOMARKERS AND ASSOCIATED METHODS” (Board of Regents, The University of Texas System, priority 2022, published 2025)", "key": {"VISTA+ BMDMs": {"system": "VISTA+ BMDMs", "experiment": "VISTA membrane expression on macrophages after Ca2+ flux modulation", "format": "cell-based, mouse", "excerpt": "(§1) Flow cytometry staining and analysis."}, "[1]": {"system": "early-stage breast cancer", "experiment": "Retrospective analysis of medications in stage 0 or 1 breast cancer patients", "format": "in vivo, human", "conditions": "poor outcome = recurrence or death; for estimated patient number with poor outcome: based on estimated 2.54% of patients taking the medication; for actual patient number with poor outcome: patients taking the medication", "excerpt": "To explore whether some medications have impact on early-stage breast cancer recurrence, we performed a retrospective analysis of the most commonly prescribed medications took by patients with stage 0 or stage 1 breast cancer. Stage 0 and 1 breast cancers are highly treatable early-stage breast cancers and generally have very good prognosis in the first five years. Typically, surgery, radiation, or a combination of the two are the standard treatments. Hormone therapy, depending on the type of cancer cells and additional risk factors, is also an option. To rule out potential impact of the medications on therapies, patients who received treatment other than surgeries were excluded. 1652 patients diagnosed with stage 0 or 1 breast cancer at MDACC between 2016-2021 were enrolled in the study. 29 patients have been diagnosed with cancer recurrence (1.76%) and 3 out of 29 patients were deceased by 2021. Another 13 patients were also deceased, but whether cancer is the cause of their deaths is not clear. Altogether, total 42 patients (2.54%) have poor clinical outcome, including cancer recurrence or death. We first analyzed the 50 most prescribed drugs in USA which include many common drugs such as Aspirin, Simvastatin, and Metformin. About half of the drugs (24) were took by >100 patients based on their electric health record. To cover more medications, we further expanded the drug list by adding the top 20 over-the-counter medicines (OTC) sold on AMAZON website. To explore potential impact of medications on cancer recurrence and patient mortality, we compared the predicated patient numbers with poor clinical outcomes (X-axis) based on the estimated 2.54% (the ratio of total patients with poor outcome to total number of patients) versus the actual patient number with poor outcomes (Y-axis) of each medication (FIG. 15A). Most medications show limited impacts on patients' outcome, including Aspirin (8.5 vs. 8, estimated vs. actual patient number with poor outcome) and Metformin (3.5 vs 4). […] Instead, antihistamine may intercept or delay early-stage breast cancer progression by enhancing immune surveillance."}, "CD8+ T cells": {"system": "CD8+ T cells", "experiment": "In vitro co-culture of macrophages with T cells", "format": "cell-based, mouse", "conditions": "T cells co-cultured with histamine-treated macrophages vs vehicle-treated", "description": "In vitro co-culture with T cells. Spleens from wild-type C57BL/6 or BALB/c mice were harvested and filtered through a […] cell strainer to generate a single-cell suspension. After red blood cell lysis, splenocytes were counted and plated in complete Roswell Park Memorial Institute 1640 medium supplemented with […] b-mercaptoethanol and 10 mM HEPES onto 12-well plates coated with […] anti-CD3 (clone 145-2C11, BioLegend) and […] anti-CD28 (clone 37N, BioLegend) antibodies. Spleen T cells were activated for 48 hours before co-culture with macrophages. To educate the macrophages, we co-cultured naïve BMDMs with tumor cells at a ratio of 1:1 or with tumor cell-derived conditioned medium for 48 hours. Macrophages were seeded with activated T cells at a ratio of 5:1. After co-culture for another 24 or 48 hours, T cells were collected for flow cytometry analysis.\nas §1"}, "peritoneal macrophages": {"system": "peritoneal macrophages", "conditions": "histamine 10 mM, vs vehicle-treated", "protocol": "Macrophage polarization and stimulation. To polarize macrophages toward an M1-like phenotype, we stimulated PBMC-derived macrophages or BMDMs with IFN-g (20 ng/ml, PeproTech) for 48 hours. To induce an M2-like phenotype, we treated THP-1-derived macrophages or BMDMs with IL-4 (20 ng/mL, PeproTech) for 48 hours. […] To stimulate macrophages with tumor cell-derived conditioned medium (TCM), we cultured BMDMs with complete medium containing 50% TCM (volume).\nFlow cytometry staining and analysis. Live single cells were sub-gated by staining with Fixable Viability Dye eFluor 450 (eBioscience) for 15 minutes at 4° C. For blocking of Fc receptors, cells were then pre-incubated with purified anti-CD16/32 antibody (clone 93, BioLegend) for 10 minutes on ice before immunostaining. After one wash with flow cytometry buffer, cells were incubated with appropriate dilutions of various combinations of the following antibodies. […]"}, "melanoma patients": {"system": "melanoma patients", "experiment": "Retrospective Epic SlicerDicer analysis of anti-PD-1/PD-L1-treated melanoma patients", "format": "in vivo, human", "conditions": "patients taking the medicine during anti-PD-1/PD-L1 treatment vs those who did not", "description": "Epic SlicerDicer software analysis. Our retrospective study was conducted on melanoma patients encountered during 2016-2017 at The University of Texas MD Anderson Cancer Center, which draws a diverse range of local, regional, national, and international patients. The study population consisted of all melanoma patients with of International Classification of Diseases (ICD) code C43 (10th version). Anonymized aggregate-level data were collected using the SlicerDicer function within MD Anderson Epic electronic medical records. Institutional Review Board approval was therefore waived. Using the Epic SlicerDicer, we identified 9922 patients with a visit diagnosis, billing diagnosis, or active problem list with malignant skin of melanoma (ICD-10-CM:C43, which includes all subgroups). EPIC SlicerDicer was used to further identify 878 of these patients who received anti-PD-1 antibodies (pembrolizumab, nivolumab, or cemiplimab) or anti-PD-L1 antibodies (durvalumab, atezolizumab, or avelumab) treatment during the study period. […] The estimated patient deaths of each subgroup were calculated based on the patient number of each subgroup and the average patient death rate (39%, based on deceased patients out of total patients analyzed). […] The survival time was calculated as the days between the two dates. […]"}, "[2]": {"system": "lung cancer, breast cancer, and colon cancer patients", "experiment": "Basket trial of anti-PD-1 treatment, response by pre-treatment plasma histamine (n=70)", "format": "in vivo, human", "excerpt": "(§2) Human samples. The untreated breast cancer samples including tumor tissues and blood plasma from TNBC patients who had undergone a mastectomy before therapy, normal breast tissues from women undergoing cosmetic breast surgery, and blood plasma from colon cancer patients and healthy subjects were collected at the First Affiliated Hospital of Chongqing Medical University. The blood plasma from patients with advanced lung (n=48), colon (n=12) and breast (n=10) cancers were collected pre-anti-PD1 treatment (patients were treated with Camrelizumab between Dec. 24, 2019 and Feb. 27, 2021) at the Beijing Friendship Hospital of Capital Medical. Best percentage change in the sum of the diameters for the selected target lesion is defined by Response Evaluation Criteria in Solid Tumors (RECIST version 1.1) on minimum 2 computed tomographic scans before treatment and 1 computed tomographic scan during treatment. The use of pathological specimens, as well as the review of all pertinent patient records, were approved by the Research Ethics Committee of the First Affiliated Hospital of Chongqing Medical University (project approval number 1005367 2017-012) and the Research Ethics Committee of Beijing Friendship Hospital of Capital Medical University (project approval number 2017-P2-141-01), and written informed consent were obtained from each participant and/or their legal representative, as appropriate.\n(§3) Enzyme-linked immunosorbent assay (ELISA). The levels of histamine in cell culture supernatant, serum/plasma, and tissues were detected by Histamine ELISA kits (ENZ-KIT140-0001, Enzo; ab213975, Abcam) according to the manufacturer's instructions."}, "lung cancer patients": {"system": "lung cancer patients", "experiment": "Responses of anti-PD-1-treated lung cancer patients by plasma histamine", "format": "in vivo, human", "conditions": "patient count, lung cancer (n = 48)", "excerpt": "as §2, §3"}, "colon cancer patients": {"system": "colon cancer patients", "experiment": "Responses of anti-PD-1-treated colon cancer patients by plasma histamine", "format": "in vivo, human", "conditions": "patient count, colon cancer (n = 12)", "excerpt": "as §2, §3"}, "breast cancer patients": {"system": "breast cancer patients", "experiment": "Responses of anti-PD-1-treated breast cancer patients by plasma histamine", "format": "in vivo, human", "conditions": "patient count, breast cancer (n = 10)", "excerpt": "as §2, §3"}, "[3]": {"conditions": "patients with high levels of plasma histamine (>0.6 ng/mL)"}, "[4]": {"conditions": "patients with low levels of plasma histamine (<0.3 ng/mL)"}, "[5]": {"conditions": "Histamine Medium (0.3-0.6 ng/ml)"}, "[6]": {"conditions": "Histamine Low (<0.3 ng/ml), no patients in group"}}, "data": [{"molecule": "C[C@H](CCC(=O)O)C[C@H](C)C[C@H](C)C(=O)/C=C(\\O)[C@H](C)C[C@H](C)C/C=C/[C@@H](C)[C@@H](O)[C@@H](C)[C@@H](O)C[C@@H]1CC[C@@](C)([C@H]2CC[C@@](C)([C@@H](C)O)O2)O1", "note": "[ionomycin]", "values": [{"measurement": "cell-surface VISTA expression", "setting": "VISTA+ BMDMs; HRH1-/- TAMs, ionomycin", "result": "increased cell-surface VISTA expression"}]}, {"molecule": "CN(C)C(=N)N=C(N)N", "note": "[Metformin]", "values": [{"measurement": "estimated patient number with poor outcome", "setting": "[1]", "result": 3.5}, {"measurement": "actual patient number with poor outcome", "setting": "[1]", "result": 4}]}, {"molecule": "CC(=O)OCOC(=O)CN(CC(=O)OCOC(C)=O)c1ccccc1OCCOc1ccccc1N(CC(=O)OCOC(C)=O)CC(=O)OCOC(C)=O", "note": "[BAPTA-AM]", "values": [{"measurement": "HRH1-mediated membrane VISTA expression", "setting": "VISTA+ BMDMs; WT TAMs, BAPTA-AM", "result": "reduced HRH1-mediated membrane VISTA expression"}]}, {"molecule": "NCCc1c[nH]cn1", "note": "[histamine]", "values": [{"measurement": "T cell activation", "setting": "CD8+ T cells", "result": "significantly suppressed T cell activation"}, {"measurement": "M2-like marker CD206 and M1-like marker MHCII", "setting": "peritoneal macrophages", "result": "increased M2-like marker CD206 and reduced M1-like marker MHCII"}]}, {"molecule": "CC(=O)Oc1ccccc1C(=O)O", "note": "[aspirin]", "values": [{"measurement": "death rate", "setting": "melanoma patients", "result": "reduced death rate"}, {"measurement": "estimated patient number with poor outcome", "setting": "[1]", "result": 8.5}, {"measurement": "actual patient number with poor outcome", "setting": "[1]", "result": 8}]}, {"molecule": "CC1(C)S[C@@H]2[C@H](NC(=O)[C@H](N)c3ccccc3)C(=O)N2[C@H]1C(=O)O", "note": "[ampicillin]", "values": [{"measurement": "death rate", "setting": "melanoma patients", "result": "increased death rate"}]}, {"molecule": "Camrelizumab (antibody, chains of the INN, looked up, V domains shown, anti-PD1 treatment of the basket-trial patients (Camrelizumab)) VH: EVQLVESGGGLVQPGGSLRLSCAASGFTFSSYMMSWVRQAPGKGLEWVATISGGGANTYYPDSVKGRFTISRDNAKNSLYLQMNSLRAEDTAVYYCARQLYYFDYWGQGTTVTVSS VL: DIQMTQSPSSLSASVGDRVTITCLASQTIGTWLTWYQQKPGKAPKLLIYTATSLADGVPSRFSGSGSGTDFTLTISSLQPEDFATYYCQQVYSIPWTFGGGTKVEIK", "values": [{"measurement": "disease control rate (DCR)", "setting": "[2]; [3]", "result": 44, "unit": "%"}, {"measurement": "overall response rate (ORR)", "setting": "[2]; [3]", "result": 16, "unit": "%"}, {"measurement": "disease control rate (DCR)", "setting": "[2]; [4]", "result": 88.3, "unit": "%"}, {"measurement": "overall response rate (ORR)", "setting": "[2]; [4]", "result": 55.6, "unit": "%"}, {"measurement": "Treatment response CR", "setting": "lung cancer patients; Histamine High (≥0.6 ng/ml)", "result": 0}, {"measurement": "Treatment response PD", "setting": "lung cancer patients; Histamine High (≥0.6 ng/ml)", "result": 6}, {"measurement": "Treatment response PR", "setting": "lung cancer patients; Histamine High (≥0.6 ng/ml)", "result": 2}, {"measurement": "Treatment response SD", "setting": "lung cancer patients; Histamine High (≥0.6 ng/ml)", "result": 3}, {"measurement": "Treatment response CR", "setting": "lung cancer patients; Histamine Low (<0.3 ng/ml)", "result": 1}, {"measurement": "Treatment response PD", "setting": "lung cancer patients; Histamine Low (<0.3 ng/ml)", "result": 2}, {"measurement": "Treatment response PR", "setting": "lung cancer patients; Histamine Low (<0.3 ng/ml)", "result": 9}, {"measurement": "Treatment response SD", "setting": "lung cancer patients; Histamine Low (<0.3 ng/ml)", "result": 6}, {"measurement": "Treatment response CR", "setting": "lung cancer patients; [5]", "result": 0}, {"measurement": "Treatment response PD", "setting": "lung cancer patients; [5]", "result": 6}, {"measurement": "Treatment response PR", "setting": "lung cancer patients; [5]", "result": 7}, {"measurement": "Treatment response SD", "setting": "lung cancer patients; [5]", "result": 6}, {"measurement": "Treatment response PD", "setting": "colon cancer patients; Histamine High (≥0.6 ng/ml)", "result": 4}, {"measurement": "Treatment response PR", "setting": "colon cancer patients; Histamine High (≥0.6 ng/ml)", "result": 2}, {"measurement": "Treatment response SD", "setting": "colon cancer patients; Histamine High (≥0.6 ng/ml)", "result": 2}, {"measurement": "Treatment response PD", "setting": "colon cancer patients; [6]", "result": 0}, {"measurement": "Treatment response PR", "setting": "colon cancer patients; [6]", "result": 0}, {"measurement": "Treatment response SD", "setting": "colon cancer patients; [6]", "result": 0}, {"measurement": "Treatment response PD", "setting": "colon cancer patients; [5]", "result": 1}, {"measurement": "Treatment response PR", "setting": "colon cancer patients; [5]", "result": 2}, {"measurement": "Treatment response SD", "setting": "colon cancer patients; [5]", "result": 1}, {"measurement": "Treatment response PD", "setting": "breast cancer patients; Histamine High (≥ 0.6 ng/ml)", "result": 4}, {"measurement": "Treatment response PR", "setting": "breast cancer patients; Histamine High (≥ 0.6 ng/ml)", "result": 0}, {"measurement": "Treatment response SD", "setting": "breast cancer patients; Histamine High (≥ 0.6 ng/ml)", "result": 2}, {"measurement": "Treatment response PD", "setting": "breast cancer patients; [6]", "result": 0}, {"measurement": "Treatment response PR", "setting": "breast cancer patients; [6]", "result": 0}, {"measurement": "Treatment response SD", "setting": "breast cancer patients; [6]", "result": 0}, {"measurement": "Treatment response PD", "setting": "breast cancer patients; [5]", "result": 1}, {"measurement": "Treatment response PR", "setting": "breast cancer patients; [5]", "result": 1}, {"measurement": "Treatment response SD", "setting": "breast cancer patients; [5]", "result": 2}]}]}
